We go through 4 molecules from publication PMC4983199 (Cell, 2016).

As usually defined, the Kd is the free concentration of one partner at which half of the binding sites on the other are occupied at equilibrium, for simple one-to-one binding.

Numbering of substitutions follows the chain as printed.

For experiment [1], the target named is ZIKV E protein (recombinant, ectodomain, strain H/PF/2013) (Zika virus H/PF/2013, UniProt A0A024B7W1). In words: ELISA. On the technique in general: In an ELISA, binding on a coated surface is turned into a signal by an enzyme label.
Chain of ZIKV E protein (recombinant, ectodomain, strain H/PF/2013) (A0A024B7W1 whole entry, looked up, the tested form may be a part): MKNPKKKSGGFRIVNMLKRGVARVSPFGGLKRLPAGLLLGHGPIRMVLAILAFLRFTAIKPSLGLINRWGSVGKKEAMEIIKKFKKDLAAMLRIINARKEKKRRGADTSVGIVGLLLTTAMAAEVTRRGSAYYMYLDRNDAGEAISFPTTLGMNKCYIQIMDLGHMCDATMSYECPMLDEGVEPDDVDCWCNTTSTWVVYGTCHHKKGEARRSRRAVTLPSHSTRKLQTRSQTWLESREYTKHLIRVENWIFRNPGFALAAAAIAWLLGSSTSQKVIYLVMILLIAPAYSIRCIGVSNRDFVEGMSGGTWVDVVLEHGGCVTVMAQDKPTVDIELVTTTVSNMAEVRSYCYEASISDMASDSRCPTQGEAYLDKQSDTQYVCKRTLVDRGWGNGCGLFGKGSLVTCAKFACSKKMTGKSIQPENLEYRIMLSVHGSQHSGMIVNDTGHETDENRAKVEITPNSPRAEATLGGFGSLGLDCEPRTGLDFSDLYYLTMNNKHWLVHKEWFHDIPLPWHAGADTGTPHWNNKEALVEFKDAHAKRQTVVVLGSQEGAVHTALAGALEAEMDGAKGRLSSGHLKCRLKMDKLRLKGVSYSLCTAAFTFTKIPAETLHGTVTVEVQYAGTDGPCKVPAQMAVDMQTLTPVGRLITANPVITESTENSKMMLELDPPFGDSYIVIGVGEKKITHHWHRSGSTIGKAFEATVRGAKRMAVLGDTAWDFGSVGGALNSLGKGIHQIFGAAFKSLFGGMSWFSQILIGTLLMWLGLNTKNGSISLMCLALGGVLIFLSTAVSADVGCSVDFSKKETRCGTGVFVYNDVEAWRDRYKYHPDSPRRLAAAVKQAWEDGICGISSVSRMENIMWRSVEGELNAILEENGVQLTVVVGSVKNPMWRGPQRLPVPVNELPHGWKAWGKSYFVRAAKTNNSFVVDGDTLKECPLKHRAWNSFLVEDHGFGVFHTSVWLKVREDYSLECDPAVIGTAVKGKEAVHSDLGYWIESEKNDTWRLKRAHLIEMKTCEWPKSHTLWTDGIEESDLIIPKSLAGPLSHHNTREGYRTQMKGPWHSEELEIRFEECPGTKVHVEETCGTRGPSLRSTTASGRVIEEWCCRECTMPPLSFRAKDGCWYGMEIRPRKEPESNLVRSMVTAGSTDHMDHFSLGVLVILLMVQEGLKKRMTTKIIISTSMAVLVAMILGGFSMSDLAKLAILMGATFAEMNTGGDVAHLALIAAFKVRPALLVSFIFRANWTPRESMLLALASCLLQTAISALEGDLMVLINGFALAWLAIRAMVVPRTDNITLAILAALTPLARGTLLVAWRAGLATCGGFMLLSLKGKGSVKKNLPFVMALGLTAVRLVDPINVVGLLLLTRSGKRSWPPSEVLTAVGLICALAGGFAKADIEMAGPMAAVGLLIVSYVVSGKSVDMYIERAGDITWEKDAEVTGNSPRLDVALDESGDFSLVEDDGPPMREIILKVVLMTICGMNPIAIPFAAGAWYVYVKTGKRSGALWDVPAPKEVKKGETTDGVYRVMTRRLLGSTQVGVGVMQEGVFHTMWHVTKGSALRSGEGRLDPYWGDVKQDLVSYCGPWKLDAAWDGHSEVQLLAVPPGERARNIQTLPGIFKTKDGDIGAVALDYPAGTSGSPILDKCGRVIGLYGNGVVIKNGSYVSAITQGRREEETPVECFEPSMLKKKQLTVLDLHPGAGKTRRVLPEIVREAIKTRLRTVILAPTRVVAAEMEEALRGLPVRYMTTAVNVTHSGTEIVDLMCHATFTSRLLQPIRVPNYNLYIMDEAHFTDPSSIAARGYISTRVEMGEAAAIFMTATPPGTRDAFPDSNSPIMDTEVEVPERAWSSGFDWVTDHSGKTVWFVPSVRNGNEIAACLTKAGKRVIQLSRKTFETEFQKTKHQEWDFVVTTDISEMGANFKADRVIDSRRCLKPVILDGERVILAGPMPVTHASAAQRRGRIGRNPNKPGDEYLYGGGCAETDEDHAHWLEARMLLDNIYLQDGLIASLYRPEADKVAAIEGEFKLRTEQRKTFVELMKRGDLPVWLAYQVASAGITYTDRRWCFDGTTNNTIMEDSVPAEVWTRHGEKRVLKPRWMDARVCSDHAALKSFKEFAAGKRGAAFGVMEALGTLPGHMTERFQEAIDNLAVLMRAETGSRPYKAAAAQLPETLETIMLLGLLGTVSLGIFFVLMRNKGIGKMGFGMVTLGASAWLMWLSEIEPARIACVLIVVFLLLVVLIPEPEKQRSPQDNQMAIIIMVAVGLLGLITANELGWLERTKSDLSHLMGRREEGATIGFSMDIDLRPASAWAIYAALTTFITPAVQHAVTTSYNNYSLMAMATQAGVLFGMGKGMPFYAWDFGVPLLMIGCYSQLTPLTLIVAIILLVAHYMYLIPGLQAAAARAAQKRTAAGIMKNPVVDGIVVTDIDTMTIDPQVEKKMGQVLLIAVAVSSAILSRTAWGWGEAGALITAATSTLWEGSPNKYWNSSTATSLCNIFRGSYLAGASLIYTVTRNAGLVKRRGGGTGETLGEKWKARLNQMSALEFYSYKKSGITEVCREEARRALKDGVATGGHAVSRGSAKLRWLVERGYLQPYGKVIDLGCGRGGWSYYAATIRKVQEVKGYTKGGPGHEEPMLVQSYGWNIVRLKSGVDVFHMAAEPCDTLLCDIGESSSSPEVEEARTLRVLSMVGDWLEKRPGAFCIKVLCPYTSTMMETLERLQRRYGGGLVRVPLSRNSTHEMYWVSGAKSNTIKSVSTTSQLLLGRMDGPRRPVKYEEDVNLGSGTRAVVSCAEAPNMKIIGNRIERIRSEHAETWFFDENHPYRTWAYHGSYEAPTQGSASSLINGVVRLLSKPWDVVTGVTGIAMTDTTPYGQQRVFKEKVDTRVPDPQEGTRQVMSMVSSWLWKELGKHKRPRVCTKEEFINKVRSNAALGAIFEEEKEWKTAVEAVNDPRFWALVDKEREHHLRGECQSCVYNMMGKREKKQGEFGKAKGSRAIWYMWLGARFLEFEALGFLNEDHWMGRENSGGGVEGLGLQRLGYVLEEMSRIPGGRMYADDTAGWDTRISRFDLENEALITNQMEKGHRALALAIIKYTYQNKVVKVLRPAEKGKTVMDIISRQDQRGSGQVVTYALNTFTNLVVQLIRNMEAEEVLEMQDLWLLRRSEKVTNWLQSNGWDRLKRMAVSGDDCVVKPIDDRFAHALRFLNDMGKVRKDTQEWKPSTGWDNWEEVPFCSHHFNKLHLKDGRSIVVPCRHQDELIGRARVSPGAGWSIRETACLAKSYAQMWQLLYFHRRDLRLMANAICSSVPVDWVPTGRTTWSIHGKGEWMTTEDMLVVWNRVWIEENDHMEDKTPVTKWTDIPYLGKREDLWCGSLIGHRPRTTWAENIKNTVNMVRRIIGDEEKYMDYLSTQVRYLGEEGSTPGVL
The target in experiment [2] is T1, ZIKV E protein domain III (DIII), strain H/PF/2013 (Zika virus H/PF/2013).
T1 chain: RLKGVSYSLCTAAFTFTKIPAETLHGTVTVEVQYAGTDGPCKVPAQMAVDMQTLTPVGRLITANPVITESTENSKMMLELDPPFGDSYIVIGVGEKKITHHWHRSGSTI
In words: cell-based or functional assay.

The target of experiment [3] is ZIKV subviral particles (SVPs, prM-E), strain H/PF/2013 (Zika virus H/PF/2013, UniProt A0A024B7W1). In words: ELISA.
The target in experiment [4] is T1, ZIKV E protein domain III (DIII), …. Description: BLI. (BLI is a label-free optical method that tracks binding on a fibre tip over time.)

B1: ZV-54 mouse monoclonal antibody (antibody, V domains shown)
VH: QVQLQQSGVGLARPGTSVKLSCKASGYSFTTYGISWVTQRPGQGLEWIGVIYPRSNNTYYNERFRGKATLTADKSSSSAYLELRGLTAEDSAVYFCARENYGSVYWGQGTTLTVSS
VL: DIVMTQSQKFMSTSVGDRVTITCKASQSVGTAVAWYHQKPGQSPKLLIYSASNRYTGVPDRFTGSGSGTDFTLTITYMQSEDLADYFCQQFSNYPFTFGGGTKLEIK
On to B1, for which the binding result in experiment [1] and in experiment [3] was “binds” throughout. For the same molecule, the “FRNT50, focus reduction neutralization of ZIKV H/PF/2013 on Vero cells” value (“FRNT50, focus reduction neutralization” for short) in experiment [2] is 87 ng/mL. In experiment [4], binding was characterised by a dissociation constant (Kd) of 7.9 ± 0.2 nM. This molecule also gave a t1/2 in experiment [4] of 33 min.

B2: ZV-67 mouse monoclonal antibody (antibody, V domains shown)
VH: B1 VH with V2A, V9T, T16A, S28T, T31S, P41A, N56G, R63K, L81M
VL: B1 VL with T20S, S28N, H37Q, T76S, Y77N, N93S, F96Y
Consider B2, for which, in experiment [2], the “FRNT50, focus reduction neutralization” value came out at 143 ng/mL. In experiment [4], the Kd turned out to be 8.8 ± 1.7 nM and the t1/2 worked out at 13.8 min.

B3: ZV-2 mouse monoclonal antibody (antibody, V domains shown)
VH: QVQLQESGAELMKPGASVKLSCKTSGYTFIGYWIEWLKQRPGHGLEWVGEIFPGSGRTKYNEKFKGRATFTADTSSNMAYMQLSSLTTEDSAIYYCARYYYGSYYALDYWGQGTSVTVSS
VL: DIVMTQSPSSLSVSAGEKVTLSCKSSQSLLHSGNQKNYLAWYQQKPGQAPKLLIYGASTRESGVPDRFTGSGSGTDFTLTISSVQAEDLAVYYCQNDHSYPLTFGAGTKLELK
With B3, in experiment [4], the Kd was found to be 266 ± 42 nM and the t1/2 is 0.3 min.

B4: ZV-48 mouse monoclonal antibody (antibody, V domains shown)
VH: QVQLQQPGAELLKPGASVKLSCKASGYSFSNYWMHWVKQRPGQGPEWIGMIHPNSGNTKYNEKFKNKATLTVDKSSSMVYMQLSSLTSEDSAVFYCARLGNDMDYWGQGTSVTVSS
VL: DIVMSQSPSSLAVSVGEKITMSCKSSQSLLYSNNEKNYLAWYQQKPGQSPKLLIYWASARDSGVPDRFTGSGSGTDFTLTISSVKAEDLAVFYCQQYYSYPYTFGGGTKLEIK
B4: the binding result in experiment [1] is “binds”. For the same molecule, in experiment [2], the “FRNT50, focus reduction neutralization” value was 485 ng/mL. In experiment [4], the Kd was 35 ± 0.8 nM and the t1/2 was 3.2 min.
